Experimental data taken from patent US20080166749A1, “Fluorescent Protein Sensors of Post-Translational Modifications” (INVITROGEN CORPORATION, priority 1998, published 2008).
Where no end group is shown, it is not given here.

How the values were obtained:
Assay type in all cases: biochemical
PKC ε = target: T1, PKC ε (Homo sapiens, UniProt Q02156); assay: Rate of phosphorylation of GFP PKC substrates, ^32P incorporation; conditions: 5 micromolar GFP mutant, 0.2 μg PKC isoform, 30 minutes at 30° C.
T1 sequence (Q02156 1-737): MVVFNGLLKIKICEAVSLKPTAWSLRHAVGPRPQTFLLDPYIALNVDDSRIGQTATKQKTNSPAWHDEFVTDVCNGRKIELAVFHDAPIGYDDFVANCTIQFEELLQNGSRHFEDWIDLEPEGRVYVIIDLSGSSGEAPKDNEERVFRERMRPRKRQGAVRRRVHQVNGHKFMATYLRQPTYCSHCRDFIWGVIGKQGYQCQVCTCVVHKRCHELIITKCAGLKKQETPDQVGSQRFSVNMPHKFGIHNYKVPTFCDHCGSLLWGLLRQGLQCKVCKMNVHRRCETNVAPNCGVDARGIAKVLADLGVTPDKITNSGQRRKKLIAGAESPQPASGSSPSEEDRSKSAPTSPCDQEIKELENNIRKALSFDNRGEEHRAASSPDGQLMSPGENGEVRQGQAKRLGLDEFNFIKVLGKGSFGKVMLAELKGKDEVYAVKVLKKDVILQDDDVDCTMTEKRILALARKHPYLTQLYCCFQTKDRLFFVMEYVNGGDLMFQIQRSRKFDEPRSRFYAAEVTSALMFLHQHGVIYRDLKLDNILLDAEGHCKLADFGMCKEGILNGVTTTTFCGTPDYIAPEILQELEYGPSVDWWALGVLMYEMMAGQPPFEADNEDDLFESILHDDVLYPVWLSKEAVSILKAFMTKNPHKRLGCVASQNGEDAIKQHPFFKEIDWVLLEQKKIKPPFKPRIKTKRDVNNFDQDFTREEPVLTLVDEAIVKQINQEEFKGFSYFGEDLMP
Procedure: (§1) The rates of phosphorylation of GFP having PKC motifs were determined by measuring ^32P incorporation in the presence of different PKC isoforms (Table XIII). These examples include one example where a membrane association motif is part of the GFP mutant.
(§2) These experiments were performed by incubating the indicated GFP mutant (5 micromolar) with the indicated PKC isoform (0.2 μg) for 30 minutes at 30° C. in 25 mM TRIS pH 7.5, 1 mM DTT, 10 mM MgCl2 0.1 mM ATP 20 μg/ml phosphatidylserine, 10 μM OAG, 200 μM CaCl2 (for PKCα) and 1 mM EGTA (for PKCs ε and ζ). […] The relative specificities identified for the GFP substrates in this experiment broadly matched those identified by Nishikawa et al (1997) who used non-GFP peptides to selectively measure PCK isoform activity. […] Membrane association motif poly-Lys (hepta-Lys) was added to the C-terminus of GFP mutant K8 with PKC alpha phosphorylation motif at the N-terminus.

PKC ζ = target: T2, PKC ζ (Homo sapiens, UniProt Q05513); assay: as above; conditions: 5 micromolar GFP mutant, 0.2 μg PKC isoform, 30 minutes at 30° C.
T2 sequence (Q05513 1-592): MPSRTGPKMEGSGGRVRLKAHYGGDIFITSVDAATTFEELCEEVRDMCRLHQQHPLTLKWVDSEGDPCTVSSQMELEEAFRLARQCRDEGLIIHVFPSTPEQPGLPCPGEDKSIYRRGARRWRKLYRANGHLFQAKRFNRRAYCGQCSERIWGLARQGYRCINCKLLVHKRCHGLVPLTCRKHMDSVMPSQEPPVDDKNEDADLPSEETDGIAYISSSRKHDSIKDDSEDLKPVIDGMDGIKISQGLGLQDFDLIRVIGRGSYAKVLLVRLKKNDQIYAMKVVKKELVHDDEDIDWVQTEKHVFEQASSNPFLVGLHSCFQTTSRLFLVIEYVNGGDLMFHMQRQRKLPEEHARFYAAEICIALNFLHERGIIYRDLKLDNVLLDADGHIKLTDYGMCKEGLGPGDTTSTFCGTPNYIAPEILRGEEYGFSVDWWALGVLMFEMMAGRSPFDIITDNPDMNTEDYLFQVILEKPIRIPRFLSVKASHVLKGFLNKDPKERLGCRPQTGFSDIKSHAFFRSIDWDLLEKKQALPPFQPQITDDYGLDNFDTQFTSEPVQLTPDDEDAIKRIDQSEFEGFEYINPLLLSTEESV
Procedure: as §1, §2

PKC alpha = PKC alpha (Homo sapiens, UniProt P17252); assay: as above; conditions: 5 micromolar GFP mutant, 0.2 μg PKC isoform, 30 minutes at 30° C.
Procedure: as §1, §2

PKA = PKA (Mus musculus, UniProt P05132); assay: GFP mutant K8 quenching assay with protein kinase A inhibitors; conditions: 1 mM versus 0.1 mM ATP
Procedure: The protein kinase A inhibitors PKI (protein kinase A heat-stable inhibitor, isoform alpha (Calbiochem #539488) and H-89 (N-[2-((p-bromocinnamyl)amino)ethyl]-5-isoquinoline sulfonamide, HCl) (Calbiochem #371963) were tested in the preferred assay condition to determine if they could be detected using the GFP mutant K8 quenching assay. Both compounds were tested individually (between 0.1 and 1,000 nM) and pre-incubated with PKA in the absence of mutant K8 for 10 minutes at 4° C. Then, GFP mutant K8 was added to a final concentration of 4 μM and the mixtures were incubated for thirty minutes at 30° C. The kinase reactions were terminated by the addition of the preferred acetate quenching conditions (100 mM acetate, 100 mM NaCl, pH 5.0, 25 mM beta-glycerol phosphate). The fluorescence of these samples was measured 14 to 16 hours later. The results of these studies establish that the GFP mutant K8 quenching assay can be used to detect kinase inhibitors and further validates the methodology for drug screening.
The protein kinase A inhibitor H-89 was tested in the GFP mutant K8 kinase assay at two different ATP concentrations (0.1 mM and 1 mM). […] Because the GFP kinase assay can be performed at both high and low ATP concentrations, this method can be used to identify, measure, and detect ATP antagonists. […]

Kinase and Activity (CPM), PKC ε (PKC ε)	Kinase and Activity (CPM), PKC ζ (PKC ζ)	Kinase and Activity (CPM), PKC alpha (PKC alpha)	Compound	inhibition of kinase activity at the higher ATP concentration (PKA)
12,688 CPM	8,421 CPM	4,745 CPM	Pkc 7: GFP mutant K8 with PKC ζ motif Arg Arg Phe Lys Arg GIn Gly Ser Phe Phe (RRFKRQGSFF; not fully specified; printed as Arg Arg Phe Lys Arg GIn Gly Ser Phe Phe)	
20,259 CPM	14,606 CPM	5.230 CPM	Pkc 8: GFP mutant K8 with PKC μ motif Ala Ala Leu Val Arg GIn Met Ser Val Ala (AALVRQMSVA; not fully specified; printed as Ala Ala Leu Val Arg GIn Met Ser Val Ala)	
			Cl.O=S(=O)(NCCNCC=Cc1ccc(Br)cc1)c1cccc2cnccc12 [H-89, N-[2-((p-bromocinnamyl)amino)ethyl]-5-isoquinoline sulfonamide, HCl]	much less efficient at inhibiting kinase activity
